Experimental data from US20050019833A1, “Proteins capable of binding to environmental hormones and process for producing the same” (priority 2002, published 2005).

B1: anti-alkylphenol monoclonal antibody: monoclonal antibody (IgG2b, kappa) produced by mouse hybridoma AP-14 (FERM BP-6633) (antibody, V domains shown)
VH: QVQLQQSAAELARPGASVKMSCKASGYRFTRYTMHWVKQRPGQGLEWIGNINPSSGDTEYNQKFKDKTTLTADKSSTTAYMQLSSLTSEDSAVYYCATPIFYYGSRYVRYEMDYWGQGTSVTVSS
VL: DIVMTQAAFSNPVTLGTSTSISCRSTKSLLHSNGITYLYWYLQKPGQSPQLLIYQMSNLASGVPDRFSSSGSGTDFTLRISRVEAEDVGVYYCAQNLELPYTFGGGTKLEIKR
modifications: Mouse
B2: anti-alkylphenolethoxylate monoclonal antibody: monoclonal antibody (IgG1, kappa) produced by mouse hybridoma MOF3-139 (FERM BP-6059) (antibody, V domains shown)
VH: QVQLQQSGAELMKPGASVKISCKVTGYTFRSYWIEWVKQRPGHGLEWIGEILVGSGSTKYNEKFKGKATITAQTSSNTVYMQLSSLTSEDSAVYYCARPFFGSRYDYSDFWGQGTTLTVSS
VL: DIVMTQAAFSNPVTLGSSASISCRSSKSLLHRNGITYLYWYLQKPGQSPQVLIYQMSNLASGVPDRFSSSGSGTDFTLRISRVEAEDVGVYYCAQNLELPYTFGGGTKLEIKR
modifications: Mouse

Experiments:
[1] = indirect competitive ELISA, nonylphenoxyacetic acid standard solution; assay type: binding; settings: FIG. 5; cross-reactivity (%)=[IC50 of NP10EO/IC50 of test compound]x100
Description: (§1) A nonylphenoldecaethoxylate (NPLOEO) standard solution was used in (A), a nonylphenoxyacetic acid (NPLEC) standard solution was used in (B), and a nonylphenol (NP) standard solution was used in (C).
(§2) Moreover, a nonylphenoldecaethoxylate (NPLOEO) standard solution was used in (A) and (B), a nonylphenoxyacetic acid (NPLEC) standard solution was used in (C) and (D) and a nonylphenol (NP) standard solution was used in (E) and (F).
(§3) A conjugate (5 μg/mL) of hapten and bovine serum albumin (BSA) (100 μL/each well) was added to a 96-well microtiter plate and stood at 4° C. overnight. After removing the liquid from the well, 300 μL of Block Ace (purchased from Dainippon Pharmaceutical Co., Ltd.) 4-fold diluted with distillated water was added to each well and stood at 4° C. overnight. After removing the liquid from the well, a standard solution (50 μL) of nonylphenol decaethoxylate stepwise diluted with phosphate buffer (10 mM sodium phosphate (purchased from Nacalai Tesque, Inc.), 150 mM NaCl, pH 7.2) was added to each well. […] The mixture was incubated at 25° C. for 1 hr and each well was washed 4 times with a phosphate buffer. Then, 100 μL of mouse anti-HSV tagged antibody (purchased from Amersham Pharmacia Biotech), diluted with a phosphate buffer to 0.1 μg/mL, was added to each well and the mixture was incubated at 25° C. for 1 hr. […] The absorbance at wavelength of 450 nm was measured.

[2] = indirect competitive ELISA, nonylphenol standard solution; assay type: binding; settings: FIG. 5; cross-reactivity (%)=[IC50 of NP10EO/IC50 of test compound]x100
Description: as §1, §2, §3

Molecule | cross-reactivity with NP1EC [1] | cross-reactivity with NP [2]
B1 | shows cross-reactivity | shows cross-reactivity
B2 | hardly shows cross-reactivity | hardly shows cross-reactivity
